Key:
Type in all cases: biochemical, Quillaja saponaria
[1] = Experiment 5-2: screening of additional glucosidases for deglycosylation with QS-18 in crude bark extract (80%) at pH 6 and 35 deg C; conditions: CBE 80%, pH 6, 35 deg C, 18 hours; UV HPLC
Method in brief: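 Deglycosylation of QS-18 was monitored by UV HPLC after MeCN/AcOH quench with hexanophenone. The reaction ran 18 hours at 35 deg C, shaking, combining clarified pH 6 lysate with crude bark extract neutralised to pH 6 by NaOH.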

[2] = Experiment 5-1: screening of additional glucosidases for deglycosylation with purified QS-18 (0.04 mg/ml) at pH 7.5 and 30 deg C; conditions: pH 7.5, 30 degrees C, 18 hours, LCMS/MS
Method: The 94 additional genes, together with positive control (DNA encoding SEQ ID No. 262) and negative control, were transformed, expressed, lysed and reacted in the same manner as described above for Experiment 4-1, except the reaction was incubated at 30 degrees C. for 18 hours.
Samples were analysed by LCMS/MS according to the procedure in Experiment 4-1.

[3] = Experiment 5-3: screening of additional glucosidases for deglycosylation with QS-18 in treated bark extract (80%) at pH 6 and 35 deg C; conditions: TBE 80% (QS-21 approx. 4 g/L), pH 6, 35 deg C; UV HPLC
Method: Experiment 5-1 was repeated, replacing CBE with Treated Bark Extract (TBE) at pH 6. TBE was prepared from CBE by PVPP treatment and concentration, to provide TBE with a QS-21 concentration of approximately 4 g/L. TBE was adjusted to pH 6 by dropwise addition of 2M NaOH with stirring.

Row | Molecule | Experiment 5-2 % conv [1] [%] | Experiment 5-1 % conv [2] [%] | Experiment 5-3 % conv [3] [%]
1 | 824 (protein, listed as Pestalotiopsis fici) MMTTDIEAVLKSLTLEEKISLLAGQNFWETVPVPGKVPHIKTSDGPNGARGADFTGGTRAACFPAASNVAATFDLDIANRIGQALAEETQSKGARCLLAPTTCIHRHPLGGRNFESFSEDPLLSGKLASQVIQGVQSKGVAATIKHFAANEQETERMSVDETISERALREIYLRPFEIAVKEAKPWAVMTAYNCVNGEHCDSNAFNFKVLREEWGWKGLVMSDWGGTNSTAEALNAGLDLEMPGPTNRRKIPDVLAAIKEGKTTERAIDDRARAVLEFIDRLKAFEDPTIPPEQAINKPEHQALIREAGAKGCVLLKNDNGVLPLSKDKVKGKKVAVFGLAKTPLAHGGGSASVNAHYKIAPWDALQEAVGDSAELVYSQGAHTQRILLPIGEDKSAGSIVGLDGKPGFTLQVFDNATQAIEETTHGHPSSSISPLGSKATLYKILEFVGDFTPTESGSHYLGCTGLGLTQVYVNDKLVYDQQKASPDAMGFLFGAISEDEFTYPFTAGNAYRIRVRSLPPIDVPGLEILNGRSGVRLGLQLASEHDADLQGEAVALAKDADYALVFTGHDPQWETEGQDQESFNLPRKGTQDALISAVAKVNPNTVVINSTGVAIALPWLEQVSSLVHAGFPGQECGNSIVDVITGAVNPEGRLPMSFPKRLEDAPAYGNFPGEYVNGQLKVEYKEGVFVGYRHYDRIGRDKVNFAFGHGLSYTTFATDSLRVSRKSETEFSASVNVTNTGKTQGGTLVQLYAGNATTSPEHPIKGLVAFKKIRLEPGQTQTVDLAVAARDLGFFDESRGQWVVPAGQYDFSLGESALDIIQTVKVAVEKELTSAP | <0.5 | 23.5 | <0.5
2 | 874 (protein, Bifidobacterium tsurumiense) MSEQTSSSTYPSVNDLSLEEKASLTSGGDAWHLQPIEERGIPGYMITDGPHGLRKTAGDTGAIDLEHTVPATCFPPAAGMSSTWNPELVEEVGQAMAEECIQEKVAVILGPGVNIKRNPLGGRCFEYWSEDPYLAGHEAVGIVKGVQSKGVGTSLKHFAVNNQETDRLRIDARVSQRALREIYLPAFEHIVKTAQPWTVMCAYNRINGVYAAQNRWLLTDVLRKEWGFKGIVMSDWGADHDRVASLNAGLNLEMPPSFTDDQIVSAARDGRISPKQLDDMAQGMIGLVNKTRQAMSVEDYRFDAQVHDDIARRAAAESMVLLKNDEHILPLSKNARVAVIGEFARTPRYQGGGSSHITPTQLTSLLDALQQRGIEYDFAPGFTLEDGEQEQSLVDEAVNIASKADAVVMCLGLPEYAESEGFDRTSLDIPAKQLELLSKVRESNANVVVLLSNGSVVSLTPWQDQAKAVVETWLLGQSGGGAIADMLFGDVNPSGKLSQTIPLNILDDPSMLNWPGEEGHVDYGEGVFVGYRYYDTYAKEVAYPFGFGLSYSDFSIDNVSVERTGANTACVRATVTNVSQTAGAQTVQIYVAPGRSEVARPVHELKGFAKVFLEAGESKEISIDLDERAFAYWSERFNDWHIEAGTYGIEVATSSRDIVERLDIELEGDGKSLPLNEWSNMSEWRKDPVGGPIVKRMFEEGRDGRIPALPENNLGAELFLDAMPINSMSVLLGKDGKVLTQFLLDEYAKETDGLH | <0.5 | 29.4 | <0.5
3 | 823 (protein, listed as Streptomyces fulvissimus) MAAASSTSNSKALRREAVDTALAALGLDDKTRLLAGQDLWSLPALPAIGLRSLVMSDGPIGVRGVRWTAADPSVALPSPTALAATWDPELARRAGRLLAQEARRKGVHVLLAPTVNLHRTPLGGRHFEAYSEDPYLTGEIGTGYVRGVQDGGVATTVKHFVANDAETDRFTVNNTVAPRPLRELYLAPFERIVRNAHPWGIMAAYNQVNGSTMTEHRYLQNAVLRGEWGFDGFIVSDWLAARTTVGAITGGLDAAMPGPRTVYGETLADAVRAGEVDEKIVDLAVRNILLLAARVGALESAPPAVPAAALPATVDGDALAREIARRSFVLVRNEVHDGADALPLAPGTTVALSGALARDARVLGGGSALVFPDHVVSPLDGLTAALPEGALTYAVGADPSDELAIAEAGFDLTAVCRDASGAVLATVPLPSGQIQWIGADLPDGVTHDTLDTVEITGTFTPRASGEHTFGTRGTGSFALTVDDRPLFDGTQDRAPGTDPLGAFFNEPVERGRLPLTEGAPVRVSLSHRPGPGTGHPLKGVAFSLVHLAPLRDPDELIAEAVEAARSADTAIVVVGTTERVESEGFDRTDLKLPGHQDALVHAVAAVNPRTVVVVNSGSPVELPWRNEVAAVLLSWFPGQEAGHALADVLRGQEEPGGRLPTTWPVALADVPVSATTPTNGELPYTEGVFIGYRAWEKAGTTPAYAFGHGLGYTTWEYEDVSATPDSVTVRVRNTGSRPGSDTVQIYLAPAPAPDAPERPARWLAGFARVTAAPGGSVEVTVPVEARAYQVWDEEAYGWKTVPGTYEVQAARSLADVRATTTVDITA | <0.5 | 23.1 | <0.5
4 | 882 (protein, listed as Acidipropionibacterium acidipropionici) MAESPIQSLSMRSLSTEQKAALTSGADFWHTESCAPLGLPAIMLTDGPHGLRKQTGSTDMLGLGSSVPATCFPPAVGLGSSWDVDLIHRVGAALGAEASIEGVAVLLGPAINIKRSPLCGRNFEYISEDPLVAGTLGAAMVEGIQSRAVGACVKHFAANNQETDRMRVSADVDPRALHEIYLRAFEQVVRRAEPWMVMCSYNRINGVPASQDHWLLTDLLRGQWGFDRVVVSDWGAVSDRVASLSAGLDLEMPGTAGRTDAQILAALASGTLDEETLDSAAARVVTLLRRAAVGAGEVSGPLDVDAHHRLAREAAARSIVLLRNEVQRSETTGDEGALLPLRPDARIAVIGAFAEQPRYQGAGSSRINPTRLDTALAEIRALASGEVSYSPGFRLTPESVGPAEELRRDAAEAASQAEVAVVFLGLGDDAESEGFDRTGIDLSADQLALLDDVLAANPNTVVVLSNGAVVALPFADRVPAILEAWLGGQAGGGGVADVLFGRVNPSGRLTETIPKRLADSPAYLDFPGEHGHVRYGEGIFVGYRWYDARELEVAFPFGHGLSYTTFSYGQASAALDEDGNITVRLPVTNTGAVAGREVVQAYVSLPGSAVQRPPRELKGFVVVEAEPGQTVEAEMLIRREDLAYWDLRIDRWRVEAGTYRIDVAASSRDIRSSVEVVVPDGDAPIPLNWDSTLGELMAHPVAGPALAQAMAGALEGFAGAGDLMPAGAMAQMAGSLPLRALLTLGGDAVTPETLNQLIVLANGSPRK | <0.5 | 31.4 | <0.5
5 | 825 (protein, listed as Bifidobacterium bohemicum) MSEQNSERKATLPQAKDLSVEEQSALTSGTNPWSIGRVEGKGLPNYTITDGPHGLRKARDLDGMDVDAAVPATCFPPAAGMSSSWNPELIKKTGEAMGEECVQEQVAVILGPGVNIKRNPLGGRCFEFWSEDPYLAGHEAIGEVEGIQSKGIGTSLKHFAANNQETDRLRVNARISERAMREIYLPAFEHIIKNAQPWTVMCSYNRINGEYASQNSWLLTDVLRKEWGFKGIVMSDWGAVHDRAAALNAGLNLEMPPTHTDDKIVQAVRDGQVKPEQLEAMSQGMIDLVAKTQPAMEKGAAGYRYDVDEHDEIAREAAREAMVLLKNEDGLLPVKPGTKLAVIGEFARTPRYQGAGSSLINPNKLTSFLDALKDRGVEAEFAPGFTLDGDEQSQELTDEAVNAAESADTVLLFIGLPAEAESEGFDRTTLDIPAKQIEVLKAVSAVNKNVVVILSNGSVVSMPWADQAKSILECWLLGQAGGAATADVVFGDVNPSGKLAQTIVNNLDDDPSMLNWPGEEGHVDYGEGVFVGYRYYDSFHKAVTYPFGYGLSYTTFDISEVNAQKSGPQSVHVTAMVTNTGSMAGAEVVQVYVAPPACRVDRPVHELKAFKKVFLEPGQSQEVSFDLDSRAFAYWSERFEDWKVEGGSYGIEVGDSSRSIAQTVPVQLDDDGKRMKLTKWSTYGEWREDPDGNKILDKVISELEAKYGHAIIPDSQLIIMFLKSAPLGGMSMVLGANEAQDICERALAEYAKIGR | <0.5 | 24.5 | <0.5
6 | 844 (protein, listed as Paenarthrobacter aurescens) MNPTLSAAVTAPSAGTQDAEAEIRDLAQSLTLEQQVQLLTGADVWSTHAIPEIGLSRVVMSDGPAGVRGEDFDERHDSVSLPSSSALSATWSVETARNYGQVLGQEARRKGVHAVLGPTINLHRSPLGGRHFECMSEDPRLTATMAAGYVAGVQSMGVGATPKHYLANEAETERFTADSVVDERPLRELYLAAFEDAITEARAWLVMSSYNSINGTTASENKLLETPLSTEWGFDGVVVSDWTGVRSIDAANAHQDLEMPGPVGHWGPKLLAAVNEGRVSREAILEKVTRILRLAARVGSLEGFEPAVTHLPTELNGAAVAREVAVRGAVLVRNKGLLPLDAKALGSVAVIGHNADEARTQGGGSATVMPKYTVSPLEGLRKALPEGVKVTYARGAKVAEGIQAFPRTSLHNPVSNVPGIRVTFLAEDGTEISGEDRLASHLIWFGIGIPDGAASIRMEADWTAETAGVHHLGVGTVGRIRFVLDGTEVFNSELEDDTEVLGAALFDPPKTVHAIDTTAGQSIRIEAEYQLPKEQVIPFTAILLGEETVVAEPQAEIDAAVEAARASDVAVVVVGTNAAIESEGFDRKDLDLPGYQNQLVKAVAAANPRTVVVVNSGSPVLMPWLDTVDAVLLGWFGGQEFGSAVADILLGVEEPGGRLPTTWPSALDDVPVLNTTPTDGKVVYSEGIHIGYRAWLKQQAEGGAAPALPFGFGLGYTTFEFGKAHAPQAVTAGKDLVVHVPVKNTGTRTGREVVQVYVERTESAVERPVRWLAGYAGAHLAPAGTESVEIRIPAKAFAHYDGGWQFEQGTFRLLVGRHAADDFQSLDIELR | <0.5 | 43.6 | <0.5
